According to article PMC4751342:

Columns and labels:
[1] = target: human Izumo1, immobilized AVEXIS bait, Q8IYV9; experiment: AVEXIS; conditions: chain shown with the change;; parent: est. 0.16; read off a plot
[2] = target: T1, mouse Izumo1, immobilized AVEXIS bait, Q9D9J7; experiment: AVEXIS; conditions: chain shown with the change;; parent: est. 0.51; read off a plot
T1 chain: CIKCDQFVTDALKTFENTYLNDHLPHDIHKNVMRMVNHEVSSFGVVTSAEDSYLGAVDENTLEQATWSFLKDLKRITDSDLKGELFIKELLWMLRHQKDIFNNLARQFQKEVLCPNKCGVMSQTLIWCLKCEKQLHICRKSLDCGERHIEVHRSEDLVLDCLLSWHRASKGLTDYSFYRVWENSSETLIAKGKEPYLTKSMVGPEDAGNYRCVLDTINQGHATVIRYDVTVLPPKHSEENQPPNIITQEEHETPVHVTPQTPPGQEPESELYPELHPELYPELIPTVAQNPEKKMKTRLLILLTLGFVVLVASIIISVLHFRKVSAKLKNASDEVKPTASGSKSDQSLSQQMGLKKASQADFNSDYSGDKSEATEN

Sequence of human Izumo1, immobilized AVEXIS bait, Q8IYV9 (Q8IYV9 22-350): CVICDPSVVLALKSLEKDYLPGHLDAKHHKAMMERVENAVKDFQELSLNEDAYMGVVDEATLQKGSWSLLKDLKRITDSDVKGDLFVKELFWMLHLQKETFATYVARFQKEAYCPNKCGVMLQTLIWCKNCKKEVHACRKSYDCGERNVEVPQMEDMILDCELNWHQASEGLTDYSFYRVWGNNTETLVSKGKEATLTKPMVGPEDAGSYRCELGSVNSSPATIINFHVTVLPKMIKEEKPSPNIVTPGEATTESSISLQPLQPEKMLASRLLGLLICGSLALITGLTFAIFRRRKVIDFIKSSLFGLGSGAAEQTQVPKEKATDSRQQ

response [1]: 0.17 A 485 nm
response [2]: 0.5 A 485 nm
B1: mouse Juno, wild type, AVEXIS prey, Q9EQF4 N185S (protein)
chain: GDKLLSVCMNSKRHKQEPGPEDELYQECRPWEDNACCTRSTSWEAHLEEPLLFNFSMMHCGLLTPACRKHFIQAICFHECSPNLGPWIQPVVPNGQEEQRVWGVPLCQEDCEDWWRACHSSLTCKSNWLHGWDWSEEKKHCPAHEPCLPFSYHFPTPDDLCEKIWSNTFKASPERRNSGRCLQKWFEPTLSNPNVEVALHFAG
